Results reported in article doi:10.1101/2020.04.03.024018, “High-affinity agonist binding to C5aR results from a cooperative two-site binding mechanism” (bioRxiv, 2020).

Key:
Settings in all cases: both partners purified
[1] = target: T1, C5a anaphylatoxin chemotactic receptor 1 (C5aR), wild type (human, UniProt P21730 1-350, sulfonated tyrosines (sulfonation detected by anti-sulfotyrosine Western blot; eliminated by the Y11F and Y14F mutations)); test: single-molecule force spectroscopy (force-volume AFM + FD-based AFM); ligand on the AFM tip (PEG27 linker, tris-NTA-Ni2+); receptor in DOPC/CHS liposomes adsorbed on mica; low and high loading rates combined (10^2-10^7 pN/s); Friddle-Noy-de Yoreo fit, Kd calculated from dGbu; 20 mM HEPES, 300 mM NaCl, about 24 °C
T1 construct: human G protein-coupled C5a receptor (C5aR), wild type; also called C5aR^WT; wtC5aR; source: HEK-293S GnTI- cells (BacMam), purified (Ni-NTA, anti-Flag M1 resin, SEC), reconstituted in DOPC/CHS liposomes; not shown: His8, C-terminal, kept
T1 sequence (looked up): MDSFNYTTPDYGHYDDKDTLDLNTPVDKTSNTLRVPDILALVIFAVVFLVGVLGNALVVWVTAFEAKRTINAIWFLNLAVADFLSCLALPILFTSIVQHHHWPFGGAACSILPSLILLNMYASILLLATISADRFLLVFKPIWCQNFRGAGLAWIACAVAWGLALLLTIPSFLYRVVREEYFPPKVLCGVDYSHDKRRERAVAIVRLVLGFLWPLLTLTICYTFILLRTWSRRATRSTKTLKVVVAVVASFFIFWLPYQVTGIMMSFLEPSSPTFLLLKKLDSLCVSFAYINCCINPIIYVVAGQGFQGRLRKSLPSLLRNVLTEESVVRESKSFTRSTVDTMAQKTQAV

[2] = target: T1, C5a anaphylatoxin chemotactic receptor …; test: single-molecule force spectroscopy (FD-based AFM); ligand on the AFM tip (PEG27 linker, tris-NTA-Ni2+); receptor in DOPC/CHS liposomes adsorbed on mica; high loading rates only (10^5-10^7 pN/s); Friddle-Noy-de Yoreo fit, Kd calculated from dGbu; 20 mM HEPES, 300 mM NaCl, about 24 °C
[3] = target: T2, C5aRΔTyr mutant (Y11F and Y14F) (human, UniProt P21730 1-350, Y11F | Y14F); test: as above
T2 construct: human C5aR with the two sulfation-site tyrosines changed; A legend and the methods print the second mutation as F14F; also called C5aR-d2Y; source: HEK-293S GnTI- cells (BacMam), purified, reconstituted in DOPC/CHS liposomes
T2 sequence (looked up): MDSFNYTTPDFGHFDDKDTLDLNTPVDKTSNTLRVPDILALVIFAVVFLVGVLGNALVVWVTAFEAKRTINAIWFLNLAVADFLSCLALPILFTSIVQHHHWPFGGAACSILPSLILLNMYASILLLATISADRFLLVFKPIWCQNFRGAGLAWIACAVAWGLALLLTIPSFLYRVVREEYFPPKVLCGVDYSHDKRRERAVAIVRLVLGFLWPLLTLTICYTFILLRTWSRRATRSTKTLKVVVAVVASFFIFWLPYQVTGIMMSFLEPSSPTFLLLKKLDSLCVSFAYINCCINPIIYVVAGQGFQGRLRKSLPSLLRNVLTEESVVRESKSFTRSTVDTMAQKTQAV

B1: complement C5a anaphylatoxin (ligand, UniProt P01031 678-751, looked up)
chain: TLQKKIEEIAAKYKHSVVKKCCYDGACVNNDETCEQRAARISLGPRCIKAFTECCVVASQLRANISHKDMQLGR
notes: C5a anaphylatoxin, 74-aa glycoprotein, cut product of complement C5; C-terminal residue R74; numbers count on: the mature C5a; Held on the AFM tip through a PEG27 linker and tris-NTA-Ni2+; also called C5a ligand; endogenous C5a ligand
- Kd [1]: ~0.00609 µM
- Kd [2]: ~0.001 µM
- Kd [3]: ~20000 µM
